Values quoted from earlier work in PMC3652491.

Biological target: Nef peptide 12-residue peptide (Human immunodeficiency virus 1) (UniProt P04324)

## Hck SH3 (from UniProt P08631)
  Kd: 90 µM
